Results from PMC6642140, “Boosting NAD^+ with a small molecule that activates NAMPT” (Nature Communications, 2019).

Substrate: Nc1ncnc2c1ncn2[C@@H]1O[C@H](COP(=O)(O)OP(=O)(O)OP(=O)(O)O)[C@@H](O)[C@H]1O
Test: Km from NMN production assay with varied ATP; phosphorylates His247
Type: biochemical, Homo sapiens
Details: Mg2+ phosphorylation at His247

B1: NAMPT (nicotinamide phosphoribosyltransferase) (Homo sapiens) (protein)
chain: MNPAAEAEFNILLATDSYKVTHYKQYPPNTSKVYSYFECREKKTENSKLRKVKYEETVFYGLQYILNKYLKGKVVTKEKIQEAKDVYKEHFQDDVFNEKGWNYILEKYDGHLPIEIKAVPEGFVIPRGNVLFTVENTDPECYWLTNWIETILVQSWYPITVATNSREQKKILAKYLLETSGNLDGLEYKLHDFGYRGVSSQETAGIGASAHLVNFKGTDTVAGLALIKKYYGTKDPVPGYSVPAAEHSTITAWGKDHEKDAFEHIVTQFSSVPVSVVSDSYDIYNACEKIWGEDLRHLIVSRSTQAPLIIRPDSGNPLDTVLKVLEILGKKFPVTENSKGYKLLPPYLRVIQGDGVDINTLQEIVEGMKQKMWSIENIAFGSGGGLLQKLTRDLLNCSFKCSYVVTNGLGINVFKDPVADPNKRSKKGRLSLHRTPAGNFVTLEEGKGDLEEYGQDLLHTVFKNGKVTKSYSFDEIRKNAQLNIELEAAHH
notes: recombinant, N-terminal His tag removed with thrombin
Q: B1 was tested. Which Km did it give?
A: 1730 ± 320 µM
